Source: patent US7605231B2, “Gelatin derivatives and high-molecular micelle comprising the derivatives” (NOF Corporation, priority 2002, dated 2009)

Assays:
[1] = Critical micelle formation concentration (CMC) by PNA incorporation; assay type: physicochemical; conditions: isotonic phosphate buffer pH 7.4, PNA incorporation
Procedure: With regard to the PEG-grafted gelatin prepared, the critical micelle formation concentration (CMC) was measured. The CMC was measured by incorporating N-phenyl-1-naphtylamine (PNA) into the micelle. Using an isotonic phosphate buffer with a pH of 7.4, various concentrations—having PEG-grafted gelatin aqueous solutions were prepared. 0.1 ml of the PNA solution dissolved in methanol having a concentration of 5.0×10^−3M was added to 2 ml of the PEG-grafted gelatin solution and stirred for 2 minutes. Thereafter, the absorbance at a wavelength of 500 nm was measured using a spectrophotometer.
With regard to the PEG-grafted succinated gelatin prepared, the critical micelle forming concentration (CMC) was measured. The CMC was measured by incorporating N-phenyl-1-naphtyl amine (PNA) into the micelle. Using an isotonic phosphate buffer with a pH of 7.4, PEG-grafted succinated gelatin aqueous solutions with various concentrations were prepared. […] Thereafter, the absorbance at a wavelength of 500 nm was measured using a spectrophotometer.
Micelle solutions were prepared in accordance with the method of Example 3 from the PEG-grafted gelatin derivatives prepared in Example 22 and the CMC of each derivative was measured in accordance with Example 5.

[2] = Micelle form by affinity column (HiTrap Blue HP) that adsorbs gelatin; assay type: physicochemical; conditions: pH 7.4 bonding buffer, 2M NaCl elution
Procedure: The forms of the core and the shell of micelle were studied using affinity column, which adsorbs gelatin. Namely, HiTrap (Trade Mark) Blue HP column (manufactured by Amersham Pharmacia Co., Ltd.) was washed with 10 ml of an isotonic phosphate buffer with a pH of 7.4 and thereafter, 0.5 ml of a PEG-grafted gelatin micelle solution was applied. 5 ml of the isotonic phosphate buffer with a pH of 7.4 was used as a bonding buffer and 5 ml of a 2M aqueous sodium chloride solution was used as an elution buffer. The solution was fractionated with each 0.4 ml portions and the gelatin in each of the fractions was measured by the Lowery method.
The forms of the core and the shell of the micelle was studied using affinity column in which gelatin was adsorbed. Namely, HiTrap (Trade Mark) Blue HP column (manufactured by Amersham Pharmacia Co., Ltd.) was washed with 10 ml of an isotonic phosphate buffer with a pH of 7.4 and thereafter, 0.5 ml of a PEG-grafted gelatin micelle solution was applied. 5 ml of the pH isotonic phosphate buffer with a pH of 7.4 was used as a bonding buffer and 5 ml of a 2M aqueous sodium chloride solution was used as an elution buffer. The solution was fractionated with each 0.4 ml portions and the gelatin in each fraction was measured by the Lowery method. […]

pepsin = assay: In vitro stability test to enzyme: pepsin + first solution, SDS-PAGE; assay type: in vitro ADME; conditions: pepsin (10 U/mL) + first solution
Procedure: (§1) Of the various PEG-grafted gelatin derivatives prepared in Example 22, 50 mg of a gelatin derivative prepared by using 2-fold mols of PEG having a molecular weight of 5000 was dissolved in 1 ml of DDW (50 mg/mL). 500 μL of the resulting solution was added to 4.5 ml of each of a Japanese Pharmacopoeia first solution (pH 1.2), a second solution (pH 6.8), pepsin (10 U/mL)+first solution or trypsin (10 U/mL)+second solution and subjected to disintegration test. The test was carried out under the conditions based on Japanese Pharmacopoeia disintegration test. The decomposition of the gelatin was evaluated by carrying out SDS-PAGE of the sample prepared after the test. Further, 500 μL of the sample was added to 4.5 mL of DDW to prepare a control group.
(§2) 50 mg of gelatin, which was not subjected to PEG grafting, was dissolved in 1 ml of DDW. 500 μL of the resulting solution was added to 4.5 mL of each of DDW, first solution, second solution, pepsin+first solution and trypsin+second solution, respectively, and then, subjected to disintegration test. The test was carried out under the conditions based on Japanese Pharmacopoeia disintegration test. The decomposition of the gelatin was evaluated by carrying out SDS-PAGE of the sample prepared after the test.

trypsin = assay: In vitro stability test to enzyme: trypsin + second solution, SDS-PAGE; assay type: in vitro ADME; conditions: trypsin (10 U/mL) + second solution
Procedure: as §1, §2

[3] = Solubilizing of paclitaxel; assay type: physicochemical; conditions: 30 μL of 10 mg/ml paclitaxel in ethanol + 500 μL of 2% aqueous solution
Procedure: A 10 mg/ml ethanol solution of paclitaxel was prepared as (a PTX solution).
A 2% gelatin aqueous solution was prepared as a gelatin solution.

[4] = In vitro disintegration test in Japanese Pharmacopoeia first and second solutions, SDS-PAGE; assay type: physicochemical
Procedure: as §1, §2

macrophage = assay: Test of macrophage adhesion property (SEM); assay type: cell-based, mouse; conditions: crosslinked with heating at 160° C. for 3 hours, cultured 24 hours
Procedure: 1 g of gelatin or a derivative thereof was dissolved in 10 mL of purified water while heating. This resulting polymer solution was injected into a PFA made laboratory dish and allowed to stand at 4° C. for 12 hours to conduct gelation sufficiently. The resulting gel was lyophilized and then subjected to cross-linking treatment with heating at 160° C. for 3 hours under reduced pressure in vacuum.
First, to 10-week old female ddy mouse, 2 ml of a previously sterilized Brewer's thioglycolate medium (manufactured by Difco Co.) was administered to intraperitoneal. After 5 days, the mouse was killed with blood-letting and 5 ml of PBS(−) cooled at 4° C. was administered intraperitoneal. After 5 minutes, about 4 ml of intraperitoneal effusion was recovered and was centrifuged at 8000 revolution/min for about 5 minutes to prepare a cell mass of effused macrophage. To the cell mass, 2 ml of RPMI1640 medium containing 10% FCS was added and sufficiently suspended.
Next, a specimen prepared in accordance with “the method of preparing the specimen for evaluating adhesion of macrophage” according to the above-mentioned (1) was sufficiently swelled with a RPMI1640 medium to prepare a specimen for evaluating the adhesion property of macrophage. […] Surface observation was carried out by a scanning electron microscope (Hitachi Type S-3000N) and the adhesion of macrophage was evaluated.

gelatin
CMC (whether admitted) [1]: CMC was not admitted | adsorption to affinity column [2]: adsorbed to the affinity column | lowering of the gelatin molecular weight (pepsin): a lowering of the gelatin molecular weight was confirmed | lowering of the gelatin molecular weight (trypsin): a lowering of the gelatin molecular weight was confirmed | appearance on mixing with paclitaxel solution [3]: white precipitation | lowering of the gelatin molecular weight ([4]; Japanese Pharmacopoeia first solution (pH 1.2)): a lowering of the gelatin molecular weight was confirmed | lowering of the gelatin molecular weight ([4]; Japanese Pharmacopoeia second solution (pH 6.8)): except for the control group and the second solution, a lowering of the gelatin molecular weight was confirmed | adhesion of macrophage to the surface (macrophage): tightly covered with the cells such as macrophage
